One substance from article PMC4084637 can be followed below.

One assay has as its target antibody PGT128 (human). In words: SPR.
The target of another assay is antibody PGT135 (human). In words: SPR.
antibody PGT135 (human), sequence (heavy, as listed by the source, chain 1 of 2): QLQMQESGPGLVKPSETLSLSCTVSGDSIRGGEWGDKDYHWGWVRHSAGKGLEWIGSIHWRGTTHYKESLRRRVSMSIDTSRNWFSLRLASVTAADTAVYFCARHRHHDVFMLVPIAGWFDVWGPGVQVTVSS
antibody PGT135 (human), sequence (light, as listed by the source, chain 2 of 2): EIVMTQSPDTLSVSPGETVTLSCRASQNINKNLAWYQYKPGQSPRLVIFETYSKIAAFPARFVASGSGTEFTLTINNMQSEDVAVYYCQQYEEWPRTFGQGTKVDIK

antibody PGT128 (human), sequence (heavy, as listed by the source, chain 1 of 2): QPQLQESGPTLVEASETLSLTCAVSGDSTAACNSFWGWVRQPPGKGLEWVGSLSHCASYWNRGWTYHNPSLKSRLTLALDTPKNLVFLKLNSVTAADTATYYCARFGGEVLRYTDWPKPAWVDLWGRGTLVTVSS
antibody PGT128 (human), sequence (light, as listed by the source, chain 2 of 2): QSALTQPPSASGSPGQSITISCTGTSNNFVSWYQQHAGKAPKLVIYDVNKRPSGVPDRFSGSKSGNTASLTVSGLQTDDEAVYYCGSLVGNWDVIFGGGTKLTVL

In the case of “YU2 gp120 (from UniProt P35961 32-498) (natural protein)”, the Kd with antibody PGT128 (human) was 11 nM; in the assay with antibody PGT135 (human) it was 18 nM.
